From PMC4352251, “The VieB auxiliary protein negatively regulates the VieSA signal transduction system in Vibrio cholerae” (BMC Microbiology, 2015) come the findings set out here.

This experiment concerns the target VieS-C (untagged cytoplasmic portion of the sensor kinase VieS) (UniProt O68317). As to the kind of experiment: composition-gradient MALS (CG-MALS).

“VieB D62E (His6 tag removed) (from UniProt O68319 1-553) (natural protein)” gave a Kd of 197 nM and a stoichiometry N (VieB D62E monomer per VieS-C dimer) of 1.
